{"source": "paper PMC8971729", "about": "(Molecular Therapy Oncolytics, 2022)", "binders": {"B1": {"name": "HAdV-C5 fiber knob protein (domain or fragment)", "chain": "KNNDKLTLWTTPAPSPNCRLNAEKDAKLTLVLTKCGSQILATVSVLAVKGSLAPISGTVQSAHLIIRFDENGVLLNNSFLDPEYWNFRNGDLTEGTAYTNAVGFMPNLSAYPKSHGKTAKSNIVSQVYLNGDKTKPVTLTITLNGTQETGDTTPSAYSMSFSWDWSGHNYINEIFATSSYTFSYIAQE", "notes": "source: supplemental methods"}}, "molecular_target": "T1, human CXADR Fc chimera protein (CAR) (human, UniProt P78310)", "T1 construct": "also called coxsackievirus and adenovirus receptor; source: bought: R&D Systems", "T1 sequence": "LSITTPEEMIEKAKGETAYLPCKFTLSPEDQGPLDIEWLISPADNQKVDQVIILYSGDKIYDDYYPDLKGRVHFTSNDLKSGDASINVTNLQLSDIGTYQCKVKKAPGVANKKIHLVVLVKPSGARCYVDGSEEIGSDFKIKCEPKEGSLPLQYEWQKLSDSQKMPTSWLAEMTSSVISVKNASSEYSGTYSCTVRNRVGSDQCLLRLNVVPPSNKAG", "experiment": "SPR; BIAcore 3000; DSG2-Fc, CAR-Fc and CD46-His (approximately 500 RU) coupled to a CM5 chip; knob protein injected (178 uM, 5x 1:3 dilutions; single-cycle kinetics from 200 uM); 30 uL/min, PBS, 25 °C; equilibrium KD assuming 1:1 Langmuir binding", "settings": "both partners purified"}
{"binder": "B1", "values": [{"measurement": "Kd", "result": 0.76, "unit": "nM"}]}
